The target in this data set is PthA4-His (Xanthomonas citri subsp. citri (strain …, UniProt A0AAI8ETU3 1-1163)). The experiment in a line: EMSA; poly dI-dC; unlabeled competitor 1x-800x. The settings on record: protein: recombinant; tags: His (N-terminal, pET28a); label: Cy5; blunt. (A gel shift assay detects complexes by their altered migration in electrophoresis.)

B1: ProCsGRAS9 (dsDNA)
DNA 1: TATATACATACACACACACACACACACACATAT
DNA 2: ATATGTGTGTGTGTGTGTGTGTGTATGTATATA
For B1, the binding result was “binds”.
